The values that follow come from patent publication US20240383995A1 (SHANGHAI HENLIUS BIOTECH, published 2024).

The target of this experiment is T1, Human OX40 expressed on transfected Jurkat or CHO cells (human, UniProt P43489 29-277).
T1 construct: also called human OX40/Jurkat; human OX40/CHO
T1 sequence: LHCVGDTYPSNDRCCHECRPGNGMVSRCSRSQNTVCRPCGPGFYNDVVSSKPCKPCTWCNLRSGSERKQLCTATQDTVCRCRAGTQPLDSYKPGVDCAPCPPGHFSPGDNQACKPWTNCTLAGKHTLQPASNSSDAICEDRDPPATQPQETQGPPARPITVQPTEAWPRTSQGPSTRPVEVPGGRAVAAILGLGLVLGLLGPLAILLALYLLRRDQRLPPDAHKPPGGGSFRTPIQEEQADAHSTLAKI
Briefly: flow cytometry on human OX40-transfected Jurkat cells, Alexa Fluor488 anti-human IgG Fc, Geo MFI. The method, then: FIGS. 2A-2C depict whole cell binding of humanized anti-OX40 antibodies to human or cynomolgus OX40 assessed by flow cytometry. Human OX40-expressing Jurkat cells (FIG. 2A), human OX40-expressing CHO cells (FIG. 2B) and cynomolgus OX40-expressing CHO cells (FIG. 2C) were incubated with indicated anti-OX40 bivalent antibodies, and then stained with Alexa Fluor488 conjugated anti-human IgG Fc antibody. The fluorescence intensity was measured by flow cytometry.
Bivalent antibodies of these 15 clones were made by fusing VHH to human IgG1 Fc, expressed in ExpiCHO cells, and purified by Protein A affinity column. Binding affinity of the VHH-Fc bivalent antibodies to human or cynomolgus OX40 was evaluated by flow cytometry using Jurkat cells transfected with human OX40 (human OX40/Jurkat) (FIG. 2A), CHO cells transfected with human OX40 (human OX40/CHO) (FIG. 2B), and CHO cells transfected with cynomolgus OX40 (cyno OX40/CHO) (FIG. 2C). These antibodies with indicated concentrations were incubated with the cells in FACS buffer (3% FBS in PBS) on ice for 30 min, and the free antibodies were washed out with FACS buffer. […] Binding affinity was calculated using GraphPad Prism three parameter logistic equation. […]

B1: 1B3 VHH-Fc bivalent antibody (antibody, human IgG1, V domains shown)
VH: EVQLVESGGGLVQPGGSLRLSCAASGPLGMPSIAWFRQAPGKGLEFVSGIAWSTGDTYYADSVKGRFTISRDNSKNTLYLQMNSLRAEDTAVYYCAADTQVHYMGRHDIRDREEYDYWGQGTLVTVSS
notes: no light chain; also called 1B3-bivalent
Turning to B1, the concentration for a half-maximal effect (EC50 (read off the curve)) is roughly 3 nM.
